Results taken from the DeepSol protein solubility set.

Test: soluble on expression in E. coli; label from the status in PepcDB or PDB records

| Sequence | soluble on expression in E. coli |
| --- | --- |
| MGSDKIHHHHHHMPTLDPLSLRLFVSVAEAGTIAAAAEREHIAAAAVSKRISEIEATLGVALLRRTNKGVAPTAAGERLVVLAHRALHELDDIAVQMRDYASGVSGLIRLAANVSSVVQFLPREIQAFAAQHPRIQIQLEEKASAGVVKAVADNAVDIGIFTSVPHGYEVQTFPYHRDFLTLVVPGGHTLAQKQAVAFADTLDFEYVGLPPDTAISQQLTRAAHAHARPVNLRIQVTSYDAQCLMIAAGLGLGVMPHAVAQQQAANLGLATVALTDAWAERELLIAVRSLEALPVACRMLVAHLRGA | not soluble |
| MGHHHHHHSHMESVALYSFQATESDELAFNKGDTLKILNMEDDQNWYKAELRGVEGFIPKNYIRVKPHPWYSGRISRQLAEEILMKRNHLGAFLIRESESSPGEFSVSVNYGDQVQHFKVLREASGKYFLWEEKFNSLNELVDFYRTTTIAKKRQIFLRDEEPLLKSPGACFAQAQFDFSAQDPSQLSFRRGDIIEVLERPDPHWWRGRSCGRVGFFPRSYVQPVHL | not soluble |
| MGSDKIHHHHHHEKAVTHSESKEFKPETVKIGEDGELNIVPLYAPYQTYLKASLKADTSETDSKNYAEYVLRYIDKIGEKENFDPTTLETFFMLKATAYEQDMLNQTNELMKQHDEIKDIITKNYSASYEALPKKKATIFIAPSNLEFWSMTDPLAGVSGAAFQDSIIIQLNPNFDKEVLAYTIAHEYHHLVLNDTPELSRIDTSLDSVIFEGKADAFADQIVTDVSPPWNIPMDDTTKKHVARLIGNGEADYQEITMGNTEKDIPLWSRYSLGRDILTHHLKANPDLSIKTWTYEENHAILNGYKYQKLLE | not soluble |
| CSEVNVVKERPKTDEHKSYSCSFKGCTDVELVAVICPYCEKNFCLRHRHQSDHDCEKLEVAKPRMAATQKLVR | soluble |
| MSLATKFPKNFKLATATAAYQIEGAKDLNGRGFSTWDAIRLEPGRILDNSDPDLSCDGLLKYKEDVALLAEIGVTNYRFSISWSRILPDGTLSTINEEGIKFYRDLCLLLKENNIEPVVTLFHFDMPLAIYDNGTAWLNRENCEHFEKFADLCFQKFGDLVKTWITYNEINCQAWGSIVKVEGEFWLCPERPEIENHKQAPYFGAANMLLTHAKIYRNYDQNYKPTQHGILGITNGGRFCFPATDSQEDIEACNRARDWLFNFTIEPILSGSGDFPVLMRERMPFIPKFSEEEKEIIKGSTDFIGINYYLSFLVRAPKDGEKASSQSQHDGGYVFVEGKWDKICGETWIRYAPDGLLKILRYVKEKYANTPVFITENGCMDIVGQDQEDAFHDQHRIDYISGHLEAVAKALDEGCNVIGYTVWTLMDNFEWDDGFELKFGLCEVDFESPDKTRTMKKSAYFYKEFIKEFKDFHGI | not soluble |
| MADAIQTAPRFTGKNRDPQLFTVTNHYNEAGTGPLEAAICRHNPLHVVSAALRHQHEESQCPDRKWNPSEKIVKYKDMQ | not soluble |
| MSEREHWQRVYESKPSDAVSWFQAEATLSLDLIRRIGAPREAAIIDVGGGASTLVDGLLAEGFGDLTVLDLSDAALRVARNRLGARGEEVRWIAGDITGVDLPEATYDVWHDRAVFHFLTTAEARRAYVRQVMKAVRHGGHVIVATFAADGPTECSGLPVMRYDADELHAEFGSAFQLTEHRDEHHVTPAGRVQHFVYCHCLKRLLEHHHHHH | not soluble |
| MGSDKIHHHHHHMPRHVSNLELHNQIQEAALQSHLVPLGSIQLTPHFIPVEGLRRSIQRALKNCQPQDFLYCNKQGHEQLRKALSDHWREDGIYIAPEDIFITNGCMPALSLVIQKLTEVGDSILIPTPTYNGHLQLLASLKRQIVEIPADHRGIDLERLESLMQQGLAKVCLMTANYQNPLGYCFSNAEKQKIAELAAEYQCFIIEDDIFGECGYSSERPLPIRYWDREGYVVWCGSVSKSLSSAYRVGWFCLTTKLEHLKLELLVSNIGVNTPLQLGLADFIYSRGYREHLEQLRPNLMRQVEEYRSCILRAFEGIPIALSQPEGGYALWIQLPKSVDSLALYYTAQAQGITVVPGYVFGEDERYRHFIRLNAGHELTADVRQAIMSLADWSRQQMQTVS | not soluble |
| AIAQSRKQLPITNAVIHPVVLLGIVDHYNRACKNTRKRAVGILLGTIDRRGHAEVLNSFAVPFEEDERNPTVFFFDHDYVENMAAMFRKVTARERIIGWYSTGPQIRPADMGVHEIVQGFCSSGHALYVICQVDPKETGLPTEAYVSLEEDSVALEGSAPGQPRRIFEHVPNSIGALEAEEVGTEHLLRDVRNWSVSTLTGEVRAKLDALQSLRARLENIRRYLEEVASGNLPLHQEILHALQLVLKGLPRNAASSELTQAFAVCSNEQTLLIYVATLLRSVLVLHDLVNNKTELLETERKMEVAFSNATTAMDAPGSPTVADSL | soluble |
| DVPLTPSQFAKAKSENFDKKVILSNLNKPHALLWGPDNQIWLTERATGKILRVNPESGSVKTVFQVPEIVNDADGQNGLLGFAFHPDFKNNPYIYISGTFKNPKSTDKELPNQTIIRRYTYNKSTDTLEKPVDLLAGLPSSKDHQSGRLVIGPDQKIYYTIGDQGRNQLAYLFLPNQAQHTPTQQELNGKDYHTYMGKVLRLNLDGSIPKDNPSFNGVVSHIYTLGHRNPQGLAFTPNGKLLQSEQGPNSDDEINLIVKGGNYGWPNVAGYKDDSGYAYANYSAAANKSIKDLAQNGVKVAAGVPVTKESEWTGKNFVPPLKTLYTVQDTYNYNDPTCGEMTYICWPTVAPSSAYVYKGGKKAITGWENTLLVPSLKRGVIFRIKLDPTYSTTYDDAVPMFKSNNRYRDVIASPDGNVLYVLTDTAGNVQKDDGSVTNTLENPGSLIKFTYKAK | soluble |
| MAAQRLGKRVLSKLQSPSRARGPGGSPGGLQKRHARVTVKYDRRELQRRLDVEKWIDGRLEELYRGMEADMPDEINIDELLELESEEERSRKIQGLLKSCGKPVEDFIQELLAKLQGLHRQPGLRQPSPSHDGSLSPLQDRARTAHP | soluble |
| MNDRSSRRRTMKDDETFEISIPFDEAPHLDPQIFYSLSPSRRNFEEPPEAASSALALMNSVKTQLHMALERNSWLQKRIEDLEEERDFLRCQLDKFISSARMEAEDHCRMKPGPRRMEGDSRGGAGGEASDPESAASSLSGASEEGSASERRRQKQKGGASRRRFGKPKARERQRVKDADGVLCRYKKILGTFQKLKSMSRAFEHHRVDRNTVALTTPIAELLIVAPEKLAEVGEFDPSKERLLEYSRRCFLALDDETLKKVQALKKSKLLLPITYRFKR | soluble |
| MANLIYLTLNGDNQGLISSGCSSQPSIGNKAQTAHIDQIMIYEFMHGLNRDQNVNHHHLTIKKPIDKASPLLGKAICDNELLTCDFSFYRTNKFGINELFYKIKLTGAKISDIHVSISHIVVDNSVQPEESVSFSYESIIWEHCSAGTSAYSLWEDRLF | not soluble |
| MLPETTTLQPLPSVTTIMNEPPARSPMEDYYLFNQFQYNQNPYVYPPQPVYYNTWQDASTHHFDPFQSYQIPSPYEQPIQSSMCTTPLQPLEDSRIIFDESLTKNENEQKSFVEQDSSYESSGNRFGSQKGKKIAKVIRDACCSHCSTTTTTLWRKNDEGNLECNACNLYYRHNKVKRPLSLCKQKPTTRKRRQAKKE | not soluble |
| MRREILVAAAILLDSRGRVLLVGNDWGRRGRVRYTLPGGTVEPGETAVEALVREVREETGLRVRSVEHLAYVIQVEDRRKNERTLAMAFRATYEGLLNPRDPDGHIVEARFFTLEEVEERLKGHLPLLEPLRAYLRGERGRFYAYAGWHAPGVVV | soluble |
| MGSDKIHHHHHHMKNFSLWCDFIENSFLDNEFLNLLSHGINGATSNPAIFKNAILNSPIYKDKILKLKEKKTKDIYEELAISDIQKAADKLAPLFYQKNDGFISIEIDPRLHDNTTLSLGEAKRLYSAIGKENIMIKIPATKASYEVMYELMKNGISVNATLIFSLEQSQKCFEALNAGLVEFRKNNIALKEQNTRTPQAVISIFVSRFDRLLNPKAKEQNRIGILNANLAYNNIYSKNEPNIRALFASTGVKGDDLPKDYYIKELLFENSVNTAPLDAIEAFKGKMHFKKPLMNFEIYTELNQIISQSEREKACNDLLSDGLEQFCIAFEDILKAL | not soluble |
